# Measurements taken from publication PMC11910884 (The Innovation, 2025).
# B1: SmBiT-Itgal (receptor)
# chain: YNLDTRPTQSFLAQAGRHFGYQVLQIEDGVVVGAPGEGDNTGGLYHCRTSSEFCQPVSLHGSNHTSKYLGMTLATDAAKGSLLACDPGLSRTCDQNTYLSGLCYLFPQSLEGPMLQNRPAYQECMKGKVDLVFLFDGSQSLDRKDFEKILEFMKDVMRKLSNTSYQFAAVQFSTDCRTEFTFLDYVKQNKNPDVLLGSVQPMFLLTNTFRAINYVVAHVFKEESGARPDATKVLVIITDGEASDKGNISAAHDITRYIIGIGKHFVSVQKQKTLHIFASEPVEEFVKILDTFEKLKDLFTDLQRRIYAIEGTNRQDLTSFNMELSSSGISADLSKGHAVVGAVGAKDWAGGFLDLREDLQGATFVGQEPLTSDVRGGYLGYTVAWMTSRSSRPLLAAGAPRYQHVGQVLLFQAPEAGGRWNQTQKIEGTQIGSYFGGELCSVDLDQDGEAELLLIGAPLFFGEQRGGRVFTYQRRQSLFEMVSELQGDPGYPLGRFGAAITALTDINGDRLTDVAVGAPLEEQGAVYIFNGKPGGLSPQPSQRIQGAQVFPGIRWFGRSIHGVKDLGGDRLADVVVGAEGRVVVLSSRPVVDVVTELSFSPEEIPVHEVECSYSAREEQKHGVKLKACFRIKPLTPQFQGRLLANLSYTLQLDGHRMRSRGLFPDGSHELSGNTSITPDKSCLDFHFHFPICIQDLISPINVSLNFSLLEEEGTPRDQKVGRAMQPILRPSIHTVTKEIPFEKNCGEDKKCEANLTLSSPARSGPLRLMSSASLAVEWTLSNSGEDAYWVRLDLDFPRGLSFRKVEMLQPHSRMPVSCEELTEGSSLLTKTLKCNVSSPIFKAGQEVSLQVMFNTLLNSSWEDFVELNGTVHCENENSSLQEDNSAATHIPVLYPVNILTKEQENSTLYISFTPKGPKTQQVQHVYQVRIQPSAYDHNMPTLEALVGVPWPHSEDPITYTWSVQTDPLVTCHSEDLKRPSSEAEQPCLPGVQFRCPIVFRREILIQVTGTVELSKEIKASSTLSLCSSLSVSFNSSKHFHLYGSKASEAQVLVKVDLIHEKEMLHVYVLSGIGGLVLLFLIFLALYKVGFFKRNLKEKMEADGGVPNGSPPEDTDPLAVPGEETKDMGCLEPLRESDKD
# Molecular target: LgBiT-Npc1l1 expressed on OVA-Panc-02 cells (UniProt Q6T3U4 21-1333)
# Test: split reporter
# Sequence of LgBiT-Npc1l1 expressed on OVA-Panc-02 cells (Q6T3U4 21-1333): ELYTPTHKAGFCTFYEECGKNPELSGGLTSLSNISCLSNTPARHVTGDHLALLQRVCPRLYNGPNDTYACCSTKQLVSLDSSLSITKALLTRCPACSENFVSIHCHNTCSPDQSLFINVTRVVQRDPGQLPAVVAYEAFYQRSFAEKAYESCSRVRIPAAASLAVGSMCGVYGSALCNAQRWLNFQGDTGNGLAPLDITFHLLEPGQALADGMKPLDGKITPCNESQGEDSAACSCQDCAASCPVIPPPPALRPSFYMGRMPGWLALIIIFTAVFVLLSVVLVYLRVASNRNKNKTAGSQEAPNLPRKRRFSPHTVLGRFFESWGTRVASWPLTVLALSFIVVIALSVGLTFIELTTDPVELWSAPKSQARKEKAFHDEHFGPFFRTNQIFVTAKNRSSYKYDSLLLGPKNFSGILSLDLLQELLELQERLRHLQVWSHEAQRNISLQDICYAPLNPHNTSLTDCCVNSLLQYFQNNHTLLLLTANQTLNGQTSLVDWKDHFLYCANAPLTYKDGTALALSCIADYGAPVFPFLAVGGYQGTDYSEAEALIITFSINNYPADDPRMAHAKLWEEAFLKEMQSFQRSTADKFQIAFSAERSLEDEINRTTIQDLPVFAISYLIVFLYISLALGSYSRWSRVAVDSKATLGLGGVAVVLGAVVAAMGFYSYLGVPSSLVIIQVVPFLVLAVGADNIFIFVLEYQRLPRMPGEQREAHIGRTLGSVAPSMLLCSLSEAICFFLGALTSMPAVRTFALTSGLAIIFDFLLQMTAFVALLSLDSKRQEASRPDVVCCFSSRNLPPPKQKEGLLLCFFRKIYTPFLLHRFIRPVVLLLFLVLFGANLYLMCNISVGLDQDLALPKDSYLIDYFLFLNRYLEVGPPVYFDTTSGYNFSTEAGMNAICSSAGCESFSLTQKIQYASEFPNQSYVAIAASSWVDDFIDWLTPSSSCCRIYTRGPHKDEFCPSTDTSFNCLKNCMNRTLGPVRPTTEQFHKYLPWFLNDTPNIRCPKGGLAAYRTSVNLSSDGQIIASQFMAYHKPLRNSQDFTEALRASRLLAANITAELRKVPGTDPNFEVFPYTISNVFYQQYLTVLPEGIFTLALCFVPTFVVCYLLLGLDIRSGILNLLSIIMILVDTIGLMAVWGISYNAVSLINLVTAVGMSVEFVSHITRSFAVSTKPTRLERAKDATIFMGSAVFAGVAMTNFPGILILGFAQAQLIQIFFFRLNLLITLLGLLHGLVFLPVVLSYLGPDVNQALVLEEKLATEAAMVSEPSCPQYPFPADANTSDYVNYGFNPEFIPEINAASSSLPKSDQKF
binder,measurement,value
B1,fold luminescence over the NanoBiT negative controls,1000 fold
